The term Ki denotes the dissociation constant of the complex between target and ligand, obtained from inhibition or displacement. Read a high Ki as lower affinity. Broadly, the koff is a measure of how fast the partners let go of each other. A low value points to a long-lived complex. For orientation: kon means a measure of how fast the partners come together. Low values mean slower complex formation, high ones faster complex formation.

Where a SMILES comes first, the peptide text is derived from it. Where no end group is shown, it is not given here. [ ]: non-standard residue; d: D form. The star is where a group is joined. Dansyl = CN(C)c1cccc2c(S(=O)(=O)*)cccc12; PhLac = O=C(O)[C@@H](O)Cc1ccccc1

The values below come from article PMC8291497 (ACS Chemical Biology, 2021).

Experiment [1] deals with T1, Mint2 PARM 364-570 (Y524W), pWT PARM (PTB domain and ARM linker) (Homo sapiens, UniProt Q99767, Y524W).
T1 construct: made in house; host or cells: Escherichia coli BL21(DE3)pLysS
T1 sequence (Q99767 364-570 Y524W): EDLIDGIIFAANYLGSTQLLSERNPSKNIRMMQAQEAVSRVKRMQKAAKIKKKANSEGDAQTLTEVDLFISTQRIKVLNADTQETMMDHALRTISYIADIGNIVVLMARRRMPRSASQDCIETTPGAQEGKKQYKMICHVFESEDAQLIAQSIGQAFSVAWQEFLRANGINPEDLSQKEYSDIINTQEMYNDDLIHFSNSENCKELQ
The experiment can be described thus: Stopped flow binding kinetics, APP peptides to PARM (pseudo-wild type). As for the experimental part:
(§1) Kinetic binding rate constants were obtained using an upgraded SX17 stopped flow spectrometer (Applied Photophysics), and all experiments were conducted at 25 °C in 500 mM NaCl and 25 mM HEPES (pH 7.4). The relatively high NaCl concentration was used to improve the solubility of the proteins. The change in tryptophan fluorescence was measured using a band-pass filter (excitation at 280 nm and emission at 330 ± 30 nm) when mixing varying concentrations (2–50 μM) of the dansyl peptides with 1 μM protein or 0.5 μM semisynthetic proteins. […] For PTB variants, we used the kobs value from the fast kinetic phase for the analysis. […] We report the errors in kon and koff from the curve fitting. […] For these koff determinations, we report the standard error of the mean of three replicates. Φ values were defined as ΔΔGTS/ΔΔGeq, where ΔΔGTS = RT ln(kon^WT/kon^mut.) and ΔΔGeq = RT ln(Kd^mut./Keq^WT). Calculated coupling free energies were defined as ΔΔΔGEq = RT ln(Kd^mut.:WTKd^WT:mut./Kd^WT:WTKd^mut.:mut.) or ΔΔΔGTS = RT ln(kon^WT:WTkon^mut.:mut./kon^mut.:WTkon^WT:mut.) as previously described.[27] Propagated errors are reported.

The target of experiment [2] is T2, Mint2 PTB 364-538 (without the ARM linker) (Homo sapiens, UniProt Q99767, Y524W).
T2 construct: made in house; host or cells: Escherichia coli BL21(DE3)pLysS
T2 sequence (Q99767 364-538 Y524W): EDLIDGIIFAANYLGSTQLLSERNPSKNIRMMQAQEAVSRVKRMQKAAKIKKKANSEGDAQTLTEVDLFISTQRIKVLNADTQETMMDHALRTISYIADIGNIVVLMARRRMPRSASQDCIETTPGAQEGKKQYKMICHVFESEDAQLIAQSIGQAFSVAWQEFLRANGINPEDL
Put plainly: Stopped flow binding kinetics, APP peptides to PTB. As for the experimental part: as §1

Experiment [3] concerns the target T3, PARM-pWT (364-570; R455K, C483A, C501A, Y524W, C566A) (Homo sapiens, UniProt Q99767, C483A/C501A/C566A/R455K/Y524W).
T3 construct: made in house; host or cells: semisynthesis, three-segment approach (expressed fragments plus synthetic segment)
T3 sequence (Q99767 364-570 R455K/C483A/C501A/Y524W/C566A): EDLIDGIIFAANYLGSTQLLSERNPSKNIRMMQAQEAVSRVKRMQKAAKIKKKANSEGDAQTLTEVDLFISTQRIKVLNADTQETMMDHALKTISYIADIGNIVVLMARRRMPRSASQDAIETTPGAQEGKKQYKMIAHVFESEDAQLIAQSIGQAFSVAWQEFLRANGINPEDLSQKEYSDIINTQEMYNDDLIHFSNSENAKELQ
Put plainly: Stopped flow binding kinetics, APP A-to-E variants to PARM-pWT. How it is done:
as §1

Experiment [4] addresses T4, Mint2 PARM 364-570 (Y524W, Y543A) (Homo sapiens, UniProt Q99767, Y524W/Y543A).
T4 sequence (Q99767 364-570 Y524W/Y543A): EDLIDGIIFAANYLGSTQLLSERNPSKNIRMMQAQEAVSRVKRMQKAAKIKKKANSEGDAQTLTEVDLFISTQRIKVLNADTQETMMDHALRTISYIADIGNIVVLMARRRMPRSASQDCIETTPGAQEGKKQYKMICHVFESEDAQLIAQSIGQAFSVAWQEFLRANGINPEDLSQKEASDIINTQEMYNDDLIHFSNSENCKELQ
Put plainly: biochemical.

Experiment [5] has as its target T5, Mint2 PARM 364-570 (Y524W, Y543E) (Homo sapiens, UniProt Q99767, Y524W/Y543E).
T5 sequence (Q99767 364-570 Y524W/Y543E): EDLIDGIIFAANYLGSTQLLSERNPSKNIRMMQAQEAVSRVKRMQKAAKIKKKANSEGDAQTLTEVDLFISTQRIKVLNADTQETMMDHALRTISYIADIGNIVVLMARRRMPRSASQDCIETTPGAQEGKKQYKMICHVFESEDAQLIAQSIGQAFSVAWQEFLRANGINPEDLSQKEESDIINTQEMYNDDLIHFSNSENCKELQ
Put plainly: biochemical.

The next experiment addresses Mint2 PARMWT 364-570 (Homo sapiens, UniProt Q99767). The experiment can be described thus: biochemical.
Experiment [6] deals with T4, Mint2 PARM 364-570 (Y524W, Y543A). Put plainly: Stopped flow binding kinetics, APP peptides to PARM^Y543A. More on the design: made in house; host or cells: Escherichia coli BL21(DE3)pLysS. As for the experimental part: as §1
The target of experiment [7] is PTB without the ARM linker (Mint2 residues 364-538) (human, UniProt Q99767 364-538, Y524W). Put plainly: stopped-flow fluorescence kinetics. Particulars: both partners purified.
In experiment [8] the target is pseudo-wild type (pWT) PARM domain of Mint2 (residues 364-570, Y524W) (human, UniProt Q99767 364-570, Y524W). The experiment can be described thus: stopped-flow fluorescence kinetics. Particulars: both partners purified.
In a further experiment the target is PARM^Y543E (human, UniProt Q99767 364-570, Y524W | Y543E). The experiment can be described thus: stopped-flow fluorescence kinetics. The following applies: both partners purified.
For a further experiment, the target named is PARM^Y543A (human, UniProt Q99767 364-570, Y524W | Y543A). Put plainly: stopped-flow fluorescence kinetics. The following applies: both partners purified.

Chain of Mint2 PARMWT 364-570 (Q99767 364-570): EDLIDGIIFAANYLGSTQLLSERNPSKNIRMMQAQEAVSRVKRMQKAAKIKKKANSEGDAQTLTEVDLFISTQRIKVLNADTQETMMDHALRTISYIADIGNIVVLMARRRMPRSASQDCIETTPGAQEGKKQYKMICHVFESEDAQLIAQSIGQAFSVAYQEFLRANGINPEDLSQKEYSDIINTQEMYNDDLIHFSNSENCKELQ

`C[C@@H](O)[C@H](NC(=O)[C@@H]1CCCN1C(=O)[C@H](CC(N)=O)NC(=O)[C@H](CCC(=O)O)NC(=O)[C@H](Cc1ccc(O)cc1)NC(=O)CNC(=O)[C@H](CC(N)=O)NC(=O)CNC(=O)[C@H](CC(N)=O)NC(=O)[C@H](CC(N)=O)NS(=O)(=O)c1cccc2c(N(C)C)cccc12)C(=O)N[C@@H](Cc1ccccc1)C(=O)N[C@@H](CCCCN)C(=O)N[C@@H](Cc1ccccc1)C(=O)N[C@@H](Cc1ccccc1)C(=O)N[C@@H](CCC(=O)O)C(=O)O` [Peptide Y762F] returned a Kd in experiment [1] of 4 µM.

Regarding `C[C@@H](O)[C@H](NC(=O)[C@@H]1CCCN1C(=O)[C@H](CC(N)=O)NC(=O)[C@H](CCC(=O)O)NC(=O)[C@H](Cc1ccccc1)NC(=O)CNC(=O)[C@H](CC(N)=O)NC(=O)CNC(=O)[C@H](CC(N)=O)NC(=O)[C@H](CC(N)=O)NS(=O)(=O)c1cccc2c(N(C)C)cccc12)C(=O)N[C@@H](Cc1ccc(O)cc1)C(=O)N[C@@H](CCCCN)C(=O)N[C@@H](Cc1ccccc1)C(=O)N[C@@H](Cc1ccccc1)C(=O)N[C@@H](CCC(=O)O)C(=O)O` [Peptide Y757F], the Kd in experiment [2] turned out to be 0.6 µM.

“Dansyl-NNG-NGψENPTYKFFE [Peptide Y757ψ, dansyl-APP peptide with amide-to-ester backbone modification at Y757]”: in [3] (most likely due to a kobs outside the range of the instrument (>300 s^–1)), the “kinetic transient in the stopped flow experiment” value was “did not give a kinetic transient”.

NGYENPTYKFFE [APPWT (12-mer)]: the Ki in experiment [4] is 1.1 µM; in experiment [5] it was 1.1 µM; on Mint2 PARMWT 364-570, 3.2 µM.

In experiment [3], `C[C@@H](O)[C@H](NC(=O)[C@@H]1CCCN1C(=O)[C@H](CC(N)=O)NC(=O)[C@H](CCC(=O)O)NC(=O)[C@H](Cc1ccc(O)cc1)NC(=O)CNC(=O)[C@H](CC(N)=O)NC(=O)CNC(=O)[C@H](CC(N)=O)NC(=O)[C@H](CC(N)=O)NS(=O)(=O)c1cccc2c(N(C)C)cccc12)C(=O)N[C@@H](Cc1ccc(O)cc1)C(=O)N[C@@H](CCCCN)C(=O)N[C@@H](Cc1ccccc1)C(=O)O[C@@H](Cc1ccccc1)C(=O)N[C@@H](CCC(=O)O)C(=O)O` [Peptide F765φ] (Dansyl-NNGNGYENPTYKF[PhLac]E-OH; N-terminus and C-terminus assumed) had a Kd of 40 ± 9 µM and a koff of 27 s⁻¹. Further, the “F (Φ value, ΔΔGTS/ΔΔGeq)” value in experiment [3] (APP A-to-E variant vs Dansyl-APPWT) was approximately 0. In addition, the kon in [3] (pH 7.4) was 690000 M⁻¹ s⁻¹.

Regarding `C[C@@H](O)[C@H](NC(=O)[C@@H]1CCCN1C(=O)[C@H](CC(N)=O)NC(=O)[C@H](CCC(=O)O)NC(=O)[C@H](Cc1ccc(O)cc1)NC(=O)CNC(=O)[C@H](CC(N)=O)NC(=O)CNC(=O)[C@H](CC(N)=O)NC(=O)[C@H](CC(N)=O)NS(=O)(=O)c1cccc2c(N(C)C)cccc12)C(=O)N[C@@H](Cc1ccc(O)cc1)C(=O)NCC(=O)N[C@@H](Cc1ccccc1)C(=O)N[C@@H](Cc1ccccc1)C(=O)N[C@@H](CCC(=O)O)C(=O)O` [Peptide K763G], the Kd in [6] came out at 10 ± 0.3 µM.

B1: dansyl-APP F764A (peptide)
peptide: Dansyl-NGYENPTYKAFE
Turning to B1, the binding result (in experiment [7]; in [8]; with PARM^Y543E; in the experiment with PARM^Y543A) was “binds” in each case.

B2: dansyl-APP P760G (peptide)
peptide: Dansyl-NGYENGTYKFFE
On to B2, for which the binding result (in experiment [7]; in experiment [8]; with PARM^Y543E; with PARM^Y543A) was “binds” each time.

B3: dansyl-APP F765A (peptide)
peptide: Dansyl-NGYENPTYKFAE
In the case of B3, the binding result (in experiment [7]; in [8]; in the experiment with PARM^Y543E; in the experiment with PARM^Y543A) was “binds” in each case.

B4: dansyl-APP K763A (peptide)
peptide: Dansyl-NGYENPTYAFFE
As to B4, the binding result (in [7]; in [8]; in the experiment with PARM^Y543E; with PARM^Y543A) was “binds” each time.

B5: dansyl-APP P760A (peptide)
peptide: Dansyl-NGYENATYKFFE
Turning to B5, the binding result (in [7]; in [8]; in the experiment with PARM^Y543E; with PARM^Y543A) was “binds” in each case.

B6: dansyl-APP F764G (peptide)
peptide: Dansyl-NGYENPTYKGFE
Turning to B6, the binding result (in experiment [7]; in experiment [8]; in the experiment with PARM^Y543E; with PARM^Y543A) was “binds” throughout.

B7: dansyl-APP Y757F (peptide)
peptide: Dansyl-NGFENPTYKFFE
Take B7: the binding result (in [7]; in experiment [8]; with PARM^Y543E; with PARM^Y543A) was “binds” throughout.

B8: dansyl-APP K763G (peptide)
peptide: Dansyl-NGYENPTYGFFE
On to B8, for which the binding result (in experiment [7]; in experiment [8]; with PARM^Y543E; with PARM^Y543A) was “binds” throughout.

B9: dansyl-APP Y762F (peptide)
peptide: Dansyl-NGYENPTFKFFE
B9: the binding result (in experiment [7]; in experiment [8]; with PARM^Y543E; with PARM^Y543A) was “binds” each time.

B10: dansyl-APP F765G (peptide)
peptide: Dansyl-NGYENPTYKFGE
In the case of B10, the binding result (in experiment [7]; in experiment [8]; in the experiment with PARM^Y543E; with PARM^Y543A) was “binds” each time.
